A short description of this data set: amyloid nucleation score (Sup35N fusion, yeast selection) (log enrichment); library NNK1; higher = more nucleation; inactive = no reads after selection. Summed up:
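In psi-negative yeast, Sup35N fusions carrying peptides of 20 random codons were induced with 100 μM copper sulfate for 24 hours. The cells then grew 7 days at 30°C on medium lacking adenine and uracil, and plasmid inserts from input and output were Illumina-sequenced, excluding sequences with under 100 input reads. Nucleation score is the DiMSum log enrichment of output over input reads, centred on the mode score of non-aggregating sequences.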

141 substances from the supplement of paper PMC12042874 can be followed below.

± gives the uncertainty stated by the source.

YLMMVIRKVFVPCCNG displayed an amyloid nucleation score of 0.378 ± 0.21.

FYPRM displayed an amyloid nucleation score of 0.781 ± 0.54.

RLYWSCCDRVDTFLCVF yielded an amyloid nucleation score of 4.43 ± 0.099.

The substance NNINWVKGKHR returned an amyloid nucleation score of -1.06 ± 2.4.

NLCFLITNYINRLNFYNFVV registered an amyloid nucleation score of 0.807 ± 0.93.

In turn, GRVQL showed an amyloid nucleation score of 0.405 ± 0.48.

TRRVWLQCLMLSYMAVYISM: the amyloid nucleation score amounted to 0.044 ± 1.1.

As to TEDPYSGPILKEPVDLCWLE, the amyloid nucleation score worked out at 0.494 ± 0.74.

For the substance YSLSRCSSEDMSYVYWCSRS, the amyloid nucleation score was found to be 0.119 ± 0.32.

Take SSGVFTSI: the amyloid nucleation score is -0.042 ± 0.66.

YGCVCGSDNTHWNYMLVNNH: the amyloid nucleation score stood at 7.222 ± 0.051.

Substance LFIVPRRGARRYRVVITKSV registered an amyloid nucleation score of 0.003 ± 0.46.

TWRNNLKWHMYTYLLPAHIG came in with an amyloid nucleation score of -0.42 ± 0.46.

Turning to YGHLVYTDHVWRRFETVKG, the amyloid nucleation score worked out at 0.661 ± 0.84.

For the substance PICCLLQLLGDSGWMCCSAW, the amyloid nucleation score is 6.538 ± 0.061.

Regarding KFILRYMAWTRVDAVVSKPY, the amyloid nucleation score was -0.496 ± 0.38.

In turn, SFCVRQSTVFLMMSWECFRY showed an amyloid nucleation score of 1.19 ± 0.8.

In the case of MMTGFNNIPTIKQLGSCAHY, the amyloid nucleation score was 0.291 ± 0.97.

As for NAYLKVIYQRSFGAPNRH, the amyloid nucleation score was -0.1 ± 0.69.

VGTDLNETVG had an amyloid nucleation score of -0.646 ± 1.5.

Take LWPDTDPIGGE: the amyloid nucleation score was -0.74 ± 1.1.

In turn, HIVVFKYVCYSHEAVYWRPE registered an amyloid nucleation score of 0.305 ± 1.2.

Take LVFCVLMW: the amyloid nucleation score was 0.532 ± 0.16.

Substance TSDGVMMVR showed an amyloid nucleation score of 0.564 ± 0.34.

In turn, DSSYKWWTYFWGA displayed an amyloid nucleation score of -0.267 ± 0.42.

In turn, GARYNASDRGEASYLIEHCG registered an amyloid nucleation score of -0.531 ± 0.99.

In the case of SRTYFESRDFEEYRAMRPSL, the amyloid nucleation score entry was “inactive”.

With AVMMHDTVGVHW, the amyloid nucleation score was -0.609 ± 0.6.

FLVKSIRTVGL: the amyloid nucleation score came out at 0.605 ± 0.36.

VFNFT returned an amyloid nucleation score of -0.816 ± 1.9.

For the substance VNRFANVLRR, the amyloid nucleation score worked out at 0.234 ± 0.29.

On to FGRSVLDRVKVMHVRVVVSV, for which the amyloid nucleation score is -0.372 ± 0.63.

In the case of LSDRVFSVTTQGPCDSIFLS, the amyloid nucleation score is -0.792 ± 0.61.

QDIARPRYIPSNNRKKTREP returned an amyloid nucleation score of -1.35 ± 1.9.

SFREHGRSSNRP had an amyloid nucleation score of 0.423 ± 1.4.

As to HDASSFSLMRKFRCGC, the amyloid nucleation score is 0.333 ± 0.69.

In turn, CFRISARFFRVQFHGVVCIW displayed an amyloid nucleation score of 1.51 ± 0.25.

On to SPNCM, for which the amyloid nucleation score was -0.358 ± 1.4.

SHYNNNHSAGWLLQLFTMAC registered an amyloid nucleation score of 0.05 ± 0.88.

Turning to CFCFKPSVKE, the amyloid nucleation score was -1.71 ± 2.4.

YARVGKRNGSRNPYFINWGR showed an amyloid nucleation score of -0.733 ± 1.3.

Turning to VMYLSGCHLRLKCYLGSFNR, the amyloid nucleation score came to 5.51 ± 0.076.

Substance NRYMWDFSIAGVGVRLWINS gave an amyloid nucleation score of -0.896 ± 0.55.

Substance PTFFHNCVDTFRSS gave an amyloid nucleation score of -0.026 ± 0.47.

In turn, AYNLLYN returned an amyloid nucleation score of 1.59 ± 0.69.

For the substance ALSDFGDKLSPPEDLRLEHW, the amyloid nucleation score turned out to be 1.07 ± 0.62.

For LNRHYFCVGIPYGPYSQRYL, the amyloid nucleation score is 0.51 ± 0.75.

Turning to TSCEGEDFGRKLSREMVLWC, the amyloid nucleation score was found to be 0.234 ± 0.68.

Substance ASSVSMFFYIWFLDAHVGYL yielded an amyloid nucleation score of 0.364 ± 0.33.

QSSYVLCHFILE registered an amyloid nucleation score of -0.219 ± 1.2.

As for WSRSLVLGPLEMAHTKAVQN, the amyloid nucleation score was -0.658 ± 1.4.

Substance DGCIKLWGF displayed an amyloid nucleation score of 0.779 ± 0.67.

As to WISKWHYGAQSSARSKYARI, the amyloid nucleation score was found to be 0.864 ± 0.47.

As to GFECSCKYHDFTGSALCNTL, the amyloid nucleation score was 0.613 ± 0.36.

Substance ASVAHLCGQLTVDTGFRITG yielded an amyloid nucleation score of 0.138 ± 0.33.

Turning to NFVSYTFLCCGCVVLILVTS, the amyloid nucleation score amounted to 0.114 ± 0.28.

MRIRAKSALSVSLECDLQFL returned an amyloid nucleation score of 0.655 ± 0.3.

Substance FGESPH showed an amyloid nucleation score of 0.494 ± 0.74.

The substance SGDSSYIMLLVVAPMYCQLP showed an amyloid nucleation score of -0.148 ± 0.83.

Turning to FDRMNCALGVPLWDALKDGS, the amyloid nucleation score is 3.4 ± 0.14.

The substance FFGCFGLYYAMAHLLYPSLE showed an amyloid nucleation score of 1.48 ± 0.8.

The substance FRCLRTRSCLQWAQGLGAEA returned an amyloid nucleation score of 0.596 ± 0.47.

Regarding NLVWSYFLLGTDSYITTYDW, the amyloid nucleation score amounted to 0.314 ± 0.79.

For the substance ELGSGFQFVYSYS, the amyloid nucleation score is -0.465 ± 0.46.

Substance DLVSVHHVNRLRCWSGCLCE displayed an amyloid nucleation score of -0.532 ± 0.51.

With GNLRNMLMTYSSSVGNKLIF, the amyloid nucleation score is -0.344 ± 0.57.

On to RSQNLGGVFGET, for which the amyloid nucleation score was -0.066 ± 0.41.

With GTTSVSAINGR, the amyloid nucleation score was -0.545 ± 0.8.

In the case of LVITIDARRVAVTLIYMKMR, the amyloid nucleation score amounted to 2.37 ± 0.15.

On to GLVIELNPFKSLLSSPWVFF, for which the amyloid nucleation score was 0.335 ± 0.71.

As to FWSVYKT, the amyloid nucleation score is 0.744 ± 0.27.

With CWRLSYGLGVTFNKMLWPWK, the amyloid nucleation score worked out at 0.43 ± 0.56.

As to EVRSQSNEYHLRNWCVYK, the amyloid nucleation score was determined as 1.31 ± 0.23.

Consider CFPDICWHSVK, for which the amyloid nucleation score was 0.125 ± 0.79.

Turning to GHNINFGVDCGTVGRFCNTW, the amyloid nucleation score is -0.54 ± 0.61.

Regarding WLEYYYCMLHDELIS, the amyloid nucleation score stood at 0.109 ± 0.29.

Substance FALGCF displayed an amyloid nucleation score of -0.079 ± 0.36.

Consider TIATLFIFRDLFNFECLNSH, for which the amyloid nucleation score was found to be 4.61 ± 0.1.

LLAFYSVTFVSRWILQCYML: the amyloid nucleation score is -0.498 ± 0.36.

KNPRGENIFLPCLRMGKHLL returned an amyloid nucleation score of -0.776 ± 1.9.

Consider GMAHDWSRQWVRVSDAVLLR, for which the amyloid nucleation score is -0.004 ± 0.6.

With AFCSAAVQAEICEWCNSIYA, the amyloid nucleation score is -0.431 ± 0.64.

As for RRSESGKCFDLLSSSLSVIN, the amyloid nucleation score is -0.786 ± 0.73.

Substance RDSLESTVGVKMGNASGVCR gave an amyloid nucleation score of -0.818 ± 1.6.

For GKSCGHFWGRLNEGGQKLRV, the amyloid nucleation score was -0.772 ± 0.64.

In the case of VIGLVLARLYFVQIEVLLHR, the amyloid nucleation score came to 1.24 ± 0.61.

The substance RLAVLEELMVRICIVIRNFW came in with an amyloid nucleation score of -0.328 ± 0.69.

For HKIDINSVLLLKCVVYVGCL, the amyloid nucleation score is 4.12 ± 0.066.

Substance RTINYTAMWCYS had an amyloid nucleation score of 0.721 ± 0.41.

VIVWVWSCVM: the amyloid nucleation score came out at 6.247 ± 0.055.

In turn, KFDLYRTWCSSLRFGRYWRV gave an amyloid nucleation score of 1.23 ± 0.59.

SWSSGGNFARFIQYVPATHA showed an amyloid nucleation score of 0.117 ± 0.72.

As to FNSRGSVSNL, the amyloid nucleation score was found to be 0.821 ± 1.1.

With NCECSFWKREGSWGTLVSGM, the amyloid nucleation score is 0.201 ± 0.51.

The substance KLYLVVRMTGQPPSGMACVL came in with an amyloid nucleation score of 0.142 ± 1.2.

For TSTRRHYRVFARAQQEQNSP, the amyloid nucleation score was 0.869 ± 0.49.

Substance GFFFVFHYSGTHGLICCYTL displayed an amyloid nucleation score of -0.22 ± 0.41.

In turn, YSAYNRQEDLGLKIVFVLLT registered an amyloid nucleation score of 2.57 ± 0.1.

RSMGKIMIRENQRSLVMLSH displayed an amyloid nucleation score of 0.522 ± 0.57.

In turn, NMYKSMNQSTE yielded an amyloid nucleation score of -0.705 ± 0.26.

For the substance RILSDDDVARQNGNDDNLYP, the amyloid nucleation score turned out to be 3.22 ± 0.092.

The substance NSNCELGKVHFAV displayed an amyloid nucleation score of 0.501 ± 0.35.

As to RYMLHDLIFPVSVVMRVSYE, the amyloid nucleation score stood at 0.92 ± 0.22.

Consider GLPLNA, for which the amyloid nucleation score result is “inactive”.

As to IDFKGTKKLLSDRAPVGDST, the amyloid nucleation score amounted to 0.549 ± 1.

Consider AIFFGGIGKVCVKLVLCVRL, for which the amyloid nucleation score was 0.248 ± 0.27.

FTLMGNSCHRGLV: the amyloid nucleation score was -0.66 ± 0.85.

Substance MYASWSVF gave an amyloid nucleation score of -0.223 ± 0.34.

The substance WSCTSCFNYGLF returned an amyloid nucleation score of 7.178 ± 0.052.

For NLSSSRSVVKNLTFQMWNTS, the amyloid nucleation score came to 4.45 ± 0.063.

Regarding SVNKSSKVFTELANVHERAL, the amyloid nucleation score came out at 0.136 ± 0.66.

With DYRTCSCF, the amyloid nucleation score entry was “inactive”.

In the case of LFREQW, the amyloid nucleation score was found to be 0.228 ± 0.85.

VGCSRIDDPRSGAEALRSYC: the amyloid nucleation score is 1.08 ± 0.78.

Substance LGSDDLLKVSFFFVSLGS showed an amyloid nucleation score of -0.087 ± 1.2.

LCSIN gave an amyloid nucleation score of -0.876 ± 0.99.

ARVNVWAVGWSENNSNLKI displayed an amyloid nucleation score of 0.916 ± 0.24.

The substance EICSSESAVQKHNSPWGSDY displayed an amyloid nucleation score of -1.71 ± 2.7.

Regarding IGQLHFIEITNMREGHPFLA, the amyloid nucleation score was determined as 0.53 ± 0.63.

For the substance KPKVVNMVEGLRGFCGLLDL, the amyloid nucleation score is -0.602 ± 0.94.

With LFPIDSVNGTDWMTRMRDKI, the amyloid nucleation score result was “inactive”.

The substance RNWREVSYMIQVGW yielded an amyloid nucleation score of -0.186 ± 0.29.

The substance FMQLTYRMCGSPSIRVNGVL returned an amyloid nucleation score of 0.685 ± 0.34.

In turn, TSVDG showed an amyloid nucleation score of 0.162 ± 0.28.

PVDNLFNFLSGSCAISNFQK had an amyloid nucleation score of 0.638 ± 0.58.

As for SVLRRQDFTKLLMFRSGPLG, the amyloid nucleation score is 0.424 ± 0.38.

In turn, VGLFVFSMSLGLAD had an amyloid nucleation score of -1.55 ± 0.51.

In turn, DMNLRVDLYMKFEWSGLVER displayed an amyloid nucleation score of 0.109 ± 0.36.

On to GKPLTTVVAIIF, for which the amyloid nucleation score amounted to 3.56 ± 0.11.

With NLLWNTVIIFDFVRNLWTWS, the amyloid nucleation score was found to be 0.813 ± 0.72.

The substance GWVLCRGSLFIWWFWTSLRL displayed an amyloid nucleation score of -0.106 ± 1.2.

Consider YVCIGFYSSPVLGIDFLGNK, for which the amyloid nucleation score stood at 3.53 ± 0.11.

LNRSTDAFWNKIRTG gave an amyloid nucleation score of 1.01 ± 0.49.

Regarding VKFKGTTLCYIFDMDFMHGI, the amyloid nucleation score worked out at 0.948 ± 0.14.

RFETRTL came in with an amyloid nucleation score of 0.93 ± 0.31.

With NDWIFD, the amyloid nucleation score entry was “inactive”.

In turn, LLLNTLLWSL showed an amyloid nucleation score of -1.83 ± 2.7.

For TSWFAFANWVLPSFHYTPVP, the amyloid nucleation score worked out at 0.43 ± 0.43.

For MGKNMVANWILHHRHSQ, the amyloid nucleation score was -0.343 ± 0.46.

In turn, LIENTGLHRENISRAPGGR registered an amyloid nucleation score of -0.469 ± 0.83.

QFKFINVDEAHT gave an amyloid nucleation score of 0.297 ± 1.2.
